Source: publication doi:10.1101/2025.08.11.669711

Biological target: UCH37•RPN13 (UniProt Q16186)
Assay: steady-state enzyme inhibition kinetics; cleavage of K6/K48 tri-Ub by UCH37•RPN13 (0.5 μM) with varied Nb-ncS1; 50 mM HEPES pH 7.5, 50 mM NaCl, 1 mM DTT; 37 °C; competitive inhibition fit

UCH37•RPN13, sequence (Q16186 whole entry, looked up): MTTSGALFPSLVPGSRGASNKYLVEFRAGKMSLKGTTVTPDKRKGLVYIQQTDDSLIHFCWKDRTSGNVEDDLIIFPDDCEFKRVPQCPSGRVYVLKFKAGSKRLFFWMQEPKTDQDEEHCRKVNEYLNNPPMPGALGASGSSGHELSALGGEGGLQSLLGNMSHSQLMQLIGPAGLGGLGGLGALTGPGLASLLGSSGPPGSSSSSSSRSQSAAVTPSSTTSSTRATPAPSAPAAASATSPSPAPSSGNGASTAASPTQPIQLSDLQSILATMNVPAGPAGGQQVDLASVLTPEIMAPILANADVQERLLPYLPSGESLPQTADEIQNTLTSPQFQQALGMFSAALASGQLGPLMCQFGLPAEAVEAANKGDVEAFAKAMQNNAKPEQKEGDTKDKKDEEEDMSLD

Ki: 120 nM
B1: Nb-ncS1 (His-tagged) (VHH)
VHH: RVQLQESGGGLVQAGGSLRLSCAASGYIFRSYRMGWYRQAPGKERELVAAIGLGGNTYYADSVKGRFTISRDNAKNTVYQQMNSLKPEDTAVYYCAALYGKPPAFSPFPYWGQGTQVTVSS
